Measurements from article PMC7786333, “Integration of diverse DNA substrates by a casposase can be targeted to R-loops in vitro by its fusion to Cas9”.

Biological target: Cas9 (Streptococcus pyogenes, UniProt Q99ZW2 1-1368)
Assay: R-loop formation gel assay (deproteinised); sgran50; 5 mM EDTA; efficiency similar to fusions; 25 mM Tris pH 7.5, 106 mM KCl, 50 ug/ml BSA, 5 mM EDTA, 2 mM DTT, 9% glycerol, 37 C; 150 nM protein, 300 nM sgRNA, 25 nM Cy5-dsran50, 75 nM unlabelled MW12 dsDNA competitor; 8% acrylamide TBE gel
Conditions: protein: recombinant, tags: His6, label: 5'-Cy5 on ssran50 strand (strand 2), blunt 50 bp DNA target plus sgRNA, PAM TGG

Sequence of Cas9 (Q99ZW2 whole entry, the tested form may be a part): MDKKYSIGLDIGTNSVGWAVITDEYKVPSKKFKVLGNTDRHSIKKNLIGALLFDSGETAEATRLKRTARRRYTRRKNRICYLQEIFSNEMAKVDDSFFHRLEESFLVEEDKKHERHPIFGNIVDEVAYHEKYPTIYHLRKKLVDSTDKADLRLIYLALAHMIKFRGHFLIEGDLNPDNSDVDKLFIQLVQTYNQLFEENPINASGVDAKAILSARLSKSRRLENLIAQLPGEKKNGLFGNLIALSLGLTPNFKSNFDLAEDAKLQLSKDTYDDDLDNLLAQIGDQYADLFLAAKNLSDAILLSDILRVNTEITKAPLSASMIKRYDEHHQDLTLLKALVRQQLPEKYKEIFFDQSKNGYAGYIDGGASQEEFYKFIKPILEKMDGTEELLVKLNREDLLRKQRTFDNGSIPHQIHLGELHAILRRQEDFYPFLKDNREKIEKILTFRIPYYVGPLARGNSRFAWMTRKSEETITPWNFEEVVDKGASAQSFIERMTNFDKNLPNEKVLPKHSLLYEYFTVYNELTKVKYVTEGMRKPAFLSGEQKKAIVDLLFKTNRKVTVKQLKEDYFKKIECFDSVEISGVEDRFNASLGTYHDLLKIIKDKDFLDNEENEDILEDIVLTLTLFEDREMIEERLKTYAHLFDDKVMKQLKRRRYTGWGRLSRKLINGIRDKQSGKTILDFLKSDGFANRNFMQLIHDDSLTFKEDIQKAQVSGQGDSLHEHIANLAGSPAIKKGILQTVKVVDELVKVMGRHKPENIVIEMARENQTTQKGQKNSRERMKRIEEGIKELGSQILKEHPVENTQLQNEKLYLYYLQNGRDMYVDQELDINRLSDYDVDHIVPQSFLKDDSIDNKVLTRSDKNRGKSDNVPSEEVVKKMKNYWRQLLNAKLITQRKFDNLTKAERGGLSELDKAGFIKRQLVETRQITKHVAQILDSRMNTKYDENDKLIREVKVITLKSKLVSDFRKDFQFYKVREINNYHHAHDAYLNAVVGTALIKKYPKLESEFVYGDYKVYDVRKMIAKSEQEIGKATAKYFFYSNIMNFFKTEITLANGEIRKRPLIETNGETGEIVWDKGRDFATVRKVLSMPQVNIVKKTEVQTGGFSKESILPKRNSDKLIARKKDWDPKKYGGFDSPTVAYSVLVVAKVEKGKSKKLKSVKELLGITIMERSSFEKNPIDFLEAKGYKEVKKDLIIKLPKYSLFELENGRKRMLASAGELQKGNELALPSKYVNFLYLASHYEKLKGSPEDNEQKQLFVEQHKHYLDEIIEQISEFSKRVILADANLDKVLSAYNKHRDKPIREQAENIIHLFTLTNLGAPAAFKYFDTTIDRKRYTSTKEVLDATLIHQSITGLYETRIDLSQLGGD

B1: sgran50 + dsran50 (mixed)
RNA: GGUAGACGAUUACAUUGCUACAGUUUUAGAGCUAGAAAUAGCAAGUUAAAAUAAGGCUAGUCCGUUAUCAACUUGAAAAAGUGGCACCGAGUCGGUGCUU
DNA 1: CAACGTCATAGACGATTACATTGCTACATGGAGCTGTCTAGAGGATCCGA
DNA 2: TCGGATCCTCTAGACAGCTCCATGTAGCAATGTAATCGTCTATGACGTTG
binding result: binds
